According to patent US20210355229A1 (JIANGSU HENGRUI MEDICINE, published 2021):

T1: human OX40-FC-biotin (human OX40 recombinant protein with Fc tag, Acro Biosystems OX40-H5255, labeled with … (human, UniProt P43489 29-216, labeled with biotin (site not stated)))
T1 construct: range 29-216; Bought (Acro Biosystems OX40-H5255; printed once as OXO-H5255), expressed in HEK293; also called human Bio-OX40-FC; not shown: Fc tag of the bought protein
T1 sequence (looked up): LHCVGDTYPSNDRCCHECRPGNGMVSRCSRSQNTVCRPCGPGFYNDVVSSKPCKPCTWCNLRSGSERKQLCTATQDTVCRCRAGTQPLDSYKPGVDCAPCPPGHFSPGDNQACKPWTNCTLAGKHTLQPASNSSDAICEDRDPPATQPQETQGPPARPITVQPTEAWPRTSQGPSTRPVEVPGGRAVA


target: T1, human OX40-FC-biotin (human OX40 …); assay: capture ELISA, biotin-OX40-Fc
Procedure: 20xPBS buffer was diluted to 1 xwith deionized water. […] 100 μL of the diluted primary antibody was added to each well (the antibody to be tested was 5-fold diluted from the concentration of 10000 ng/ml, resulting in seven gradients, namely 10000 ng/ml, 2000 ng/ml, 400 ng/ml, 80 ng/ml, 16 ng/ml, 3.2 ng/ml, and 0.64 ng/ml, blank wells merely contained dilution solution, i.e., 2.5% skimmed milk in PBST), and incubated at 37° C. for 40 minutes. The plate was washed for 4 times with PBST, human OX40-FC-biotin (Acro biosystem, OXO-H5255, labeled biotin) was diluted with 2.5% skimmed milk in PBST, 100 μl was added to each well, incubated at 37° C. for 40 min, and the plate was washed for 4 times with PB ST. 100 μL TMB developing solution was added to each well, incubated for 3-15 minutes in dark at room temperature, 50 μl stop solution (1M sulfuric acid) was added to each well. The parameters were set for the microplate reader, the OD value was read at 450-630nm, and the test data were saved.

Row | Binder | EC50 [µg/mL] | binding result
1 | humanized antibody hu4B5-V1 (antibody, human IgG1, V domains shown, hu4B5 VH0 + hu4B5 VL0) VH: QVQLQESGPGLVKPSETLSLTCTVSGFSLTSYGLHWIRQPPGKGLEWIGVIWSGGSTDYNAAFISRVTISVDTSKNQFSLKLSSVTAADTAVYYCAREEYDVWGQGTTVTVSS VL: DIQMTQSPSSLSASVGDRVTITCRASQDISNYLNWYQQKPGKVPKLLIYYTSRLHSGVPSRFSGSGSGTDFTLTISSLQPEDVATYYCQQGNTLPWTFGGGTKVEIK | 0.59 | 
2 | humanized antibody hu4B5-V4 (antibody, human IgG1, V domains shown, hu4B5 VH3 + hu4B5 VL0; human IgG1 / human Kappa constant regions) VH: QVQLKESGPGLVKPSETLSLTCTVSGFSLTSYGLHWFRQPPGKGLEWIGVIWSGGSTDYNAAFISRVTISKEDSKSQVSLKLSSVTAADTAVYYCAREEYDVWGQGTTVTVSS VL: DIQMTQSPSSLSASVGDRVTITCRASQDISNYLNWYQQKPGKVPKLLIYYTSRLHSGVPSRFSGSGSGTDFTLTISSLQPEDVATYYCQQGNTLPWTFGGGTKVEIK |  | binds
3 | humanized antibody hu4B5-V6 (antibody, human IgG1, V domains shown, hu4B5 VH0 + hu4B5 VL1; human IgG1 / human Kappa constant regions) VH: QVQLQESGPGLVKPSETLSLTCTVSGFSLTSYGLHWIRQPPGKGLEWIGVIWSGGSTDYNAAFISRVTISVDTSKNQFSLKLSSVTAADTAVYYCAREEYDVWGQGTTVTVSS VL: DIQMTQSPSSLSASVGDRVTITCRASQDISNYLNWYQQKPGKVPKLLIYYTSRLHSGVPSRFSGSGSGTDYTLTISSLQPEDVATYYCQQGNTLPWTFGGGTKVEIK |  | binds
4 | humanized antibody hu4B5-V10 (antibody, human IgG1, V domains shown, hu4B5 VH3 + hu4B5 VL1; human IgG1 / human Kappa constant regions) VH: QVQLKESGPGLVKPSETLSLTCTVSGFSLTSYGLHWFRQPPGKGLEWIGVIWSGGSTDYNAAFISRVTISKEDSKSQVSLKLSSVTAADTAVYYCAREEYDVWGQGTTVTVSS VL: DIQMTQSPSSLSASVGDRVTITCRASQDISNYLNWYQQKPGKVPKLLIYYTSRLHSGVPSRFSGSGSGTDYTLTISSLQPEDVATYYCQQGNTLPWTFGGGTKVEIK | 0.76 | 
5 | humanized antibody hu4B5-V14 (antibody, human IgG1, V domains shown, hu4B5 VH4 + hu4B5 VL4; human IgG1 / human Kappa constant regions) VH: QVQLKESGPGLVKPSETLSLTCTVSGFSLTSYGLHWFRQPPGKGLEWLGVIWSGGSTDYNAAFISRLTISKEDSKSQVSLKLSSVTAADTAVYYCAREEYDVWGQGTTVTVSS VL: DIQMTQSPSSLSASVGDRVTITCRASQDISNYLNWYQQKPGGTVKLLIYYTSRLHSGVPSRFSGSGSGTDYTLTISSLQPEDVATYFCQQGNTLPWTFGGGTKVEIK | 0.536 | 
6 | humanized antibody hu4B5-V2 (antibody, human IgG1, V domains shown, hu4B5 VH1 + hu4B5 VL0; human IgG1 / human Kappa constant regions) VH: QVQLQESGPGLVKPSETLSLTCTVSGFSLTSYGLHWIRQPPGKGLEWIGVIWSGGSTDYNAAFISRVTISKEDSKNQFSLKLSSVTAADTAVYYCAREEYDVWGQGTTVTVSS VL: DIQMTQSPSSLSASVGDRVTITCRASQDISNYLNWYQQKPGKVPKLLIYYTSRLHSGVPSRFSGSGSGTDFTLTISSLQPEDVATYYCQQGNTLPWTFGGGTKVEIK |  | binds
7 | humanized antibody hu4B5-V8 (antibody, human IgG1, V domains shown, hu4B5 VH1 + hu4B5 VL1; human IgG1 / human Kappa constant regions) VH: QVQLQESGPGLVKPSETLSLTCTVSGFSLTSYGLHWIRQPPGKGLEWIGVIWSGGSTDYNAAFISRVTISKEDSKNQFSLKLSSVTAADTAVYYCAREEYDVWGQGTTVTVSS VL: DIQMTQSPSSLSASVGDRVTITCRASQDISNYLNWYQQKPGKVPKLLIYYTSRLHSGVPSRFSGSGSGTDYTLTISSLQPEDVATYYCQQGNTLPWTFGGGTKVEIK |  | binds
8 | humanized antibody hu4B5-V15 (antibody, human IgG1, V domains shown, hu4B5 VH0 + hu4B5 VL2; human IgG1 / human Kappa constant regions) VH: QVQLQESGPGLVKPSETLSLTCTVSGFSLTSYGLHWIRQPPGKGLEWIGVIWSGGSTDYNAAFISRVTISVDTSKNQFSLKLSSVTAADTAVYYCAREEYDVWGQGTTVTVSS VL: DIQMTQSPSSLSASVGDRVTITCRASQDISNYLNWYQQKPGGVPKLLIYYTSRLHSGVPSRFSGSGSGTDYTLTISSLQPEDVATYYCQQGNTLPWTFGGGTKVEIK |  | binds
9 | humanized antibody hu4B5-V16 (antibody, human IgG1, V domains shown, hu4B5 VH1 + hu4B5 VL2; human IgG1 / human Kappa constant regions) VH: QVQLQESGPGLVKPSETLSLTCTVSGFSLTSYGLHWIRQPPGKGLEWIGVIWSGGSTDYNAAFISRVTISKEDSKNQFSLKLSSVTAADTAVYYCAREEYDVWGQGTTVTVSS VL: DIQMTQSPSSLSASVGDRVTITCRASQDISNYLNWYQQKPGGVPKLLIYYTSRLHSGVPSRFSGSGSGTDYTLTISSLQPEDVATYYCQQGNTLPWTFGGGTKVEIK |  | binds
